± gives the standard deviation of the averaged measurements.
Test: total protein half-life in vivo (active degradation + dilution); higher = more stable protein
[1] = E. coli NCM3722 delta-clpP, growth: N-lim chemostat, doubling time 6 h
[2] = E. coli NCM3722 delta-hslV, growth: N-lim chemostat, doubling time 6 h
[3] = wild type E. coli NCM3722, growth: N-lim chemostat, doubling time 6 h
[4] = wild type E. coli NCM3722, growth: N-lim chemostat, doubling time 12 h
[5] = E. coli NCM3722 delta-clpP delta-lon delta-hslV, growth: N-lim chemostat, doubling time 6 h
[6] = E. coli NCM3722 delta-smpB, growth: N-lim chemostat, doubling time 6 h
[7] = wild type E. coli NCM3722, growth: C-lim chemostat, doubling time 3 h
[8] = wild type E. coli NCM3722, growth: C-lim chemostat, doubling time 6 h
[9] = wild type E. coli NCM3722, growth: C-lim chemostat, doubling time 12 h
[10] = wild type E. coli NCM3722, growth: P-lim chemostat, doubling time 6 h
[11] = wild type E. coli NCM3722, growth: P-lim chemostat, doubling time 12 h
[12] = E. coli NCM3722 delta-lon, growth: N-lim chemostat, doubling time 6 h

Sequence	total protein half-life in vivo [1]	total protein half-life in vivo [2]	total protein half-life in vivo [3]	total protein half-life in vivo [4]	total protein half-life in vivo [5]	total protein half-life in vivo [6]	total protein half-life in vivo [7]	total protein half-life in vivo [8]	total protein half-life in vivo [9]	total protein half-life in vivo [10]	total protein half-life in vivo [11]	total protein half-life in vivo [12]
MERVYRTDLKLLRYFLAVAEELHFGRAAARLNMSQPPLSIHIKELENQLGTQLFIRHSRSVVLTHAGKILMEESRRLLVNANNVLARIEQIGRGEAGRIELGVVGTAMWGRMRPVMRRFLRENPNVDVLFREKMPAMQMALLERRELDAGIWRMATEPPTGFTSLRLHESAFLVAMPEEHHLSSFSTVPLEALRDEYFVTMPPVYTDWDFLQRVCQQVGFSPVVIREVNEPQTVLAMVSMGIGITLIADSYAQMNWPGVIFRPLKQRIPADLYIVYETQQVTPAMVKLLAALTQ	3.26 ± 0.21 h	3.03 h	3.31 h	5.46 h	–	–	–	–	–	–	–	–
MESGHRFDAQTLHSFIQAVFRQMGSEEQEAKLVADHLIAANLAGHDSHGIGMIPSYVRSWSQGHLQINHHAKTVKEAGAAVTLDGDRAFGQVAAHEAMALGIEKAHQHGIAAVALHNSHHIGRIGYWAEQCAAAGFVSIHFVSVVGIPMVAPFHGRDSRFGTNPFCVVFPRKDNFPLLLDYATSAIAFGKTRVAWHKGVPVPPGCLIDVNGVPTTNPAVMQESPLGSLLTFAEHKGYALAAMCEILGGALSGGKTTHQETLQTSPDAILNCMTTIIINPELFGAPDCNAQTEAFAEWVKASPHDDDKPILLPGEWEVNTRRERQKQGIPLDAGSWQAICDAARQIGMPEETLQAFCQQLAS	3.99 ± 0.17 h	4.28 ± 0.11 h	4.46 ± 0.42 h	7.26 ± 1.5 h	4.97 ± 0.25 h	4.214 ± 0.024 h	3.14 ± 0.059 h	5.02 ± 0.63 h	8.45 ± 0.26 h	5.58 ± 0.14 h	10.3 ± 1.2 h	–
MESLASLYKNHIATLQERTRDALARFKLDALLIHSGELFNVFLDDHPYPFKVNPQFKAWVPVTQVPNCWLLVDGVNKPKLWFYLPVDYWHNVEPLPTSFWTEDVEVIALPKADGIGSLLPAARGNIGYIGPVPERALQLGIEASNINPKGVIDYLHYYRSFKTEYELACMREAQKMAVNGHRAAEEAFRSGMSEFDINIAYLTATGHRDTDVPYSNIVALNEHAAVLHYTKLDHQAPEEMRSFLLDAGAEYNGYAADLTRTWSAKSDNDYAQLVKDVNDEQLALIATMKAGVSYVDYHIQFHQRIAKLLRKHQIITDMSEEAMVENDLTGPFMPHGIGHPLGLQVHDVAGFMQDDSGTHLAAPAKYPYLRCTRILQPGMVLTIEPGIYFIESLLAPWREGQFSKHFNWQKIEALKPFGGIRIEDNVVIHENNVENMTRDLKLA	4.93 ± 0.32 h	5.12 ± 0.4 h	4.77 ± 0.23 h	8.64 ± 0.18 h	5.4 ± 0.69 h	4.33 ± 0.059 h	3.21 ± 0.37 h	5.72 ± 0.084 h	10.2 ± 1.3 h	6.13 ± 0.18 h	11.9 ± 0.27 h	5.92 ± 0.92 h
MESLTLQPIARVDGTINLPGSKSVSNRALLLAALAHGKTVLTNLLDSDDVRHMLNALTALGVSYTLSADRTRCEIIGNGGPLHAEGALELFLGNAGTAMRPLAAALCLGSNDIVLTGEPRMKERPIGHLVDALRLGGAKITYLEQENYPPLRLQGGFTGGNVDVDGSVSSQFLTALLMTAPLAPEDTVIRIKGDLVSKPYIDITLNLMKTFGVEIENQHYQQFVVKGGQSYQSPGTYLVEGDASSASYFLAAAAIKGGTVKVTGIGRNSMQGDIRFADVLEKMGATICWGDDYISCTRGELNAIDMDMNHIPDAAMTIATAALFAKGTTTLRNIYNWRVKETDRLFAMATELRKVGAEVEEGHDYIRITPPEKLNFAEIATYNDHRMAMCFSLVALSDTPVTILDPKCTAKTFPDYFEQLARISQAA [P0A6D3]	5.52 ± 1.1 h	4.53 ± 0.15 h	4.45 ± 0.31 h	7.534 ± 0.05 h	5.15 ± 0.18 h	4.53 ± 0.049 h	3.1 ± 0.1 h	5.96 ± 0.62 h	11.3 ± 0.63 h	5.98 ± 0.078 h	12.1 ± 1.5 h	5.22 ± 0.56 h
METRREERIGQLLQELKRSDKLHLKDAAALLGVSEMTIRRDLNNHSAPVVLLGGYIVLEPRSASHYLLSDQKSRLVEEKRRAAKLAATLVEPDQTLFFDCGTTTPWIIEAIDNEIPFTAVCYSLNTFLALKEKPHCRAFLCGGEFHASNAIFKPIDFQQTLNNFCPDIAFYSAAGVHVSKGATCFNLEELPVKHWAMSMAQKHVLVVDHSKFGKVRPARMGDLKRFDIVVSDCCPEDEYVKYAQTQRIKLMY [P0ACK5]	6.08 ± 0.73 h	6.59 ± 0.9 h	5.81 ± 0.078 h	10.57 ± 0.023 h	6.81 ± 0.62 h	5.02 ± 0.12 h	2.74 h	6.23 ± 0.15 h	9.99 ± 0.58 h	5.99 ± 0.49 h	–	6.9 ± 1.5 h
METTQTSTIASKDSRSAWRKTDTMWMLGLYGTAIGAGVLFLPINAGVGGMIPLIIMAILAFPMTFFAHRGLTRFVLSGKNPGEDITEVVEEHFGIGAGKLITLLYFFAIYPILLVYSVAITNTVESFMSHQLGMTPPPRAILSLILIVGMMTIVRFGEQMIVKAMSILVFPFVGVLMLLALYLIPQWNGAALETLSLDTASATGNGLWMTLWLAIPVMVFSFNHSPIISSFAVAKREEYGDMAEQKCSKILAFAHIMMVLTVMFFVFSCVLSLTPADLAAAKEQNISILSYLANHFNAPVIAWMAPIIAIIAITKSFLGHYLGAREGFNGMVIKSLRGKGKSIEINKLNRITALFMLVTTWIVATLNPSILGMIETLGGPIIAMILFLMPMYAIQKVPAMRKYSGHISNVFVVVMGLIAISAIFYSLFS [P0AAD6]	–	0.951 h	–	–	–	–	1.85 h	5.62 ± 2.4 h	2.71 h	1.58 h	3.86 ± 0.51 h	–
METVFDALKAMGKATSIELAARLDISREEVLNELWELKKAGFVDKSAYTWRVADNNVQQEQPAQAELPEEITTATVAKISECDLTATIEQRGPQTADELATLFGTTSRKVASTLAMAISKGRLIRVNQGGKFRYCIPGDNLPAEPKAASVSPLWLSASSSACHGVLIITVITPSPTKNSATKMPEN	–	–	–	–	5.08 ± 0.26 h	1.14 h	1.42 h	–	–	–	–	–
MEYFDMRKMSVNLWRNAAGETREICTFPPAKRDFYWRASIASIAANGEFSLFPGMERIVTLLEGGEMLLESADRFNHTLKPFQPFAFAADQVVKAKLTAGQMSMDFNIMTRLDVCKAKVRIAERTFTTFGSRGGVVFVINGAWQLGDKLLTTDQGACWFDGRHTLRLLQPQGKLLFSEINWLAGHSPDQVQ	–	–	–	–	–	–	0.307 h	–	–	–	–	–
MEYKDPMHELLSSLEQIVFKDETQKITLTHRTTSCTEIEQLRKGTGLKIDDFARVLGVSVAMVKEWESRRVKPSSAELKLMRLIQANPALSKQLME [P0A9V5]	0.508 ± 0.1 h	–	0.277 h	–	–	0.409 h	–	–	–	–	–	0.337 h
MFAEYGVLNYWTYLVGAIFIVLVPGPNTLFVLKNSVSSGMKGGYLAACGVFIGDAVLMFLAWAGVATLIKTTPILFNIVRYLGAFYLLYLGSKILYATLKGKNSEAKSDEPQYGAIFKRALILSLTNPKAILFYVSFFVQFIDVNAPHTGISFFILAATLELVSFCYLSFLIISGAFVTQYIRTKKKLAKVGNSLIGLMFVGFAARLATLQS	–	4.19 ± 0.057 h	–	8.29 h	–	–	> 4 h	–	–	–	–	5.03 ± 0.45 h
MFALCDVNAFYASCETVFRPDLWGKPVVVLSNNDGCVIARNAEAKALGVKMGDPWFKQKDLFRRCGVVCFSSNYELYADMSNRVMSTLEELSPRVEIYSIDEAFCDLTGVRNCRDLTDFGREIRATVLQRTHLTVGVGIAQTKTLAKLANHAAKKWQRQTGGVVDLSNLERQRKLMSALPVDDVWGIGRRISKKLDAMGIKTVLDLADTDIRFIRKHFNVVLERTVRELRGEPCLQLEEFAPTKQEIICSRSFGERITDYPSMRQAICSYAARAAEKLRSEHQYCRFISTFIKTSPFALNEPYYGNSASVKLLTPTQDSRDIINAATRSLDAIWQAGHRYQKAGVMLGDFFSQGVAQLNLFDDNAPRPGSEQLMTVMDTLNAKEGRGTLYFAGQGIQQQWQMKRAMLSPRYTTRSSDLLRVK	–	–	–	–	5.93 h	–	–	–	–	–	–	–
MFDFASYHRAATLADAINLLADNPQAKLLAGGTDVLIQLHHHNDRYRHIVDIHNLAELRGITLAEDGSLRIGSATTFTQLIEDPITQRHLPALCAAATSIAGPQIRNVATYGGNICNGATSADSATPTLIYDAKLEIHSPRGVRFVPINGFHTGPGKVSLEHDEILVAFHFPPQPKEHAGSAHFKYAMRDAMDISTIGCAAHCRLDNGNFSELRLAFGVAAPTPIRCQHAEQTAQNAPLNLQTLEAISESVLQDVAPRSSWRASKEFRLHLIQTMTKKVISEAVAAAGGKLQ	2.5 ± 0.1 h	3.19 h	2.52 ± 0.089 h	4 h	4.54 ± 1.2 h	2.379 ± 0.0096 h	2.25 ± 0.11 h	4.84 ± 0.91 h	6.07 ± 0.36 h	4.56 ± 0.36 h	9.6 ± 1.6 h	3.61 ± 0.29 h
MFDIGFSELLLVFIIGLVVLGPQRLPVAVKTVAGWIRALRSLATTVQNELTQELKLQEFQDSLKKVEKASLTNLTPELKASMDELRQAAESMKRSYVANDPEKASDEAHTIHNPVVKDNEAAHEGVTPAAAQTQASSPEQKPETTPEPVVKPAADAEPKTAAPSPSSSDKP	5.27 ± 1.5 h	5.04 ± 0.61 h	4.65 ± 0.15 h	8.87 ± 1.3 h	4.29 ± 0.055 h	4.49 ± 0.26 h	2.57 ± 0.12 h	4.41 ± 0.55 h	7 ± 1.1 h	4.27 ± 0.49 h	7.92 ± 0.28 h	3.92 ± 0.51 h

Source: the supplement of paper PMC11246515
